Results from article PMC8199443.

Target: OpuABC-SS, OpuABC subunit of the ABC transporter OpuA with a C-terminal TwinStrepII-tag (Lactococcus lactis)
Test: SEC; affinity-purified OpuA reconstituted in MSP1D1 nanodiscs (DOPE/DOPC/DOPG; OpuA/MSP1D1/lipid 1:20:2000 or 1:20:1000), Superdex 200 Increase 10/300 GL, 50 mM KPi pH 7.0, 200 mM KCl; peak fraction on SDS-PAGE

stoichiometry N: 2
Substance: OpuABC-SS, OpuABC subunit of the ABC transporter OpuA with a C-terminal TwinStrepII-tag (natural protein)
